{"source": "patent US20140314780A1", "about": "“Compositions Using Antibodies Directed to GPNMB and Uses Thereof” (Celldex Therapeutics, Inc., priority 2008, published 2014)", "key": {"shed GPNMB": {"system": "shed GPNMB", "assay": "Immunoprecipitation of shed GPNMB", "type": "binding, human"}, "CG56972 expressing cells [1]": {"system": "CG56972 expressing cells", "assay": "Effect of naked mAb on CG56972 expressing cells in vitro", "type": "cell-based", "conditions": "naked IgG2 mAb", "from_the_text": "(§1) Fully human monoclonal antibodies (mAb)-IgG2 to CG56972/GPNMB, an antigen predominantly found on the surface of melanoma and brain tumor cells, were generated. […] Thus it was examined whether isotype switching from an IgG2 to an IgG1 might enable the mAb to kill human melanoma cells through ADCC effector functions."}, "CG56972 expressing cells [2]": {"system": "CG56972 expressing cells", "assay": "Effect of naked mAb on CG56972 expressing cells in vivo", "conditions": "naked IgG2 mAb", "from_the_text": "as §1"}, "GPNMB": {"target": "T1, GPNMB (Homo sapiens, UniProt Q14956)", "T1 construct": "V5His; made in house", "T1 sequence (Q14956 23-492)": "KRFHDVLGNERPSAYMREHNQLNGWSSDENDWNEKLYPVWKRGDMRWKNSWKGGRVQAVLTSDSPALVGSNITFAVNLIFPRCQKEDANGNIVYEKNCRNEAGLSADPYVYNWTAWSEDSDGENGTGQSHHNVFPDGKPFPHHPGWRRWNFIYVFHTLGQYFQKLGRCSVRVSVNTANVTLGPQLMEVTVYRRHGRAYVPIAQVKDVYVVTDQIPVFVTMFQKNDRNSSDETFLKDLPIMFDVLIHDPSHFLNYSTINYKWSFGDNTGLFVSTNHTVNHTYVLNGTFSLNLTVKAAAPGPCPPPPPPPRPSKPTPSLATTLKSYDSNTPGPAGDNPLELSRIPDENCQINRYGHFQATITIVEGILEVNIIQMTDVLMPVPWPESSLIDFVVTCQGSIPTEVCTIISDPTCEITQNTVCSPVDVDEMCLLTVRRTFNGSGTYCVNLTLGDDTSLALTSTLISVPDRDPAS", "assay": "Epitope binning of anti-GPNMB antibodies (competitive binding)", "from_the_text": "Certain antibodies, described herein were binned in accordance with the protocol described in U.S. Patent Application Publication No. 20030157730. […] Competitive binding by antibodies from […] supports antibody specificity for similar or adjacent epitopes. Non competitive binding supports antibody specificity for unique epitopes.\nThree bins were created to further test the binding of six anti-GPNMB antibodies. Bin 1 included GPNMB antibodies (1.2.1), (1.10.1), and (2.22.1). Bin 2 included GPNMB antibodies (2.3.1) and (1.15.1), and Bin 3 included GPNMB antibody (2.10.1). The results of the binning assays are provided below in Tables 4 and 5."}}, "data": [{"substance": "CR011: fully human monoclonal antibody that specifically binds to GPNMB; VH SEQ ID NO: 20, VL SEQ ID NO: 29", "values": [{"measurement": "recognition of shed GPNMB", "setting": "shed GPNMB", "value": "recognize shed GPNMB"}, {"measurement": "effect on CG56972 expressing cells", "setting": "CG56972 expressing cells [1]", "value": "no effect"}, {"measurement": "effect on CG56972 expressing cells", "setting": "CG56972 expressing cells [2]", "value": "no effect"}, {"measurement": "epitope bin", "setting": "GPNMB; Table 4", "value": "VIII"}, {"measurement": "binning assay signal (antibody pair matrix)", "setting": "GPNMB; Table 4, paired with column BB", "value": "−19"}, {"measurement": "binning assay signal (antibody pair matrix)", "setting": "GPNMB; Table 4, paired with column antibody 1.1", "value": 91}, {"measurement": "binning assay signal (antibody pair matrix)", "setting": "GPNMB; Table 4, paired with column antibody 1.11", "value": 10}, {"measurement": "binning assay signal (antibody pair matrix)", "setting": "GPNMB; Table 4, paired with column antibody 1.12", "value": 15}, {"measurement": "binning assay signal (antibody pair matrix)", "setting": "GPNMB; Table 4, paired with column antibody 1.13", "value": 13}, {"measurement": "binning assay signal (antibody pair matrix)", "setting": "GPNMB; Table 4, paired with column antibody 1.15", "value": 0}, {"measurement": "binning assay signal (antibody pair matrix)", "setting": "GPNMB; Table 4, paired with column antibody 1.2", "value": 79}, {"measurement": "binning assay signal (antibody pair matrix)", "setting": "GPNMB; Table 4, paired with column antibody 1.3", "value": 71}, {"measurement": "binning assay signal (antibody pair matrix)", "setting": "GPNMB; Table 4, paired with column antibody 1.5", "value": 15}, {"measurement": "binning assay signal (antibody pair matrix)", "setting": "GPNMB; Table 4, paired with column antibody 1.7", "value": 21}, {"measurement": "binning assay signal (antibody pair matrix)", "setting": "GPNMB; Table 4, paired with column antibody 1.8", "value": 8}, {"measurement": "binning assay signal (antibody pair matrix)", "setting": "GPNMB; Table 4, paired with column antibody 1.9", "value": 12}, {"measurement": "binning assay signal (antibody pair matrix)", "setting": "GPNMB; Table 4, paired with column xV5", "value": 89}, {"measurement": "epitope bin", "setting": "GPNMB; Table 5, Cut-off = 90", "value": "VIII"}, {"measurement": "binning assay signal (antibody pair matrix)", "setting": "GPNMB; Table 5, paired with column BB", "value": 59}, {"measurement": "binning assay signal (antibody pair matrix)", "setting": "GPNMB; Table 5, paired with column antibody 1.1", "value": 127}, {"measurement": "binning assay signal (antibody pair matrix)", "setting": "GPNMB; Table 5, paired with column antibody 1.11", "value": 19}, {"measurement": "binning assay signal (antibody pair matrix)", "setting": "GPNMB; Table 5, paired with column antibody 1.12", "value": 21}, {"measurement": "binning assay signal (antibody pair matrix)", "setting": "GPNMB; Table 5, paired with column antibody 1.13", "value": 5}, {"measurement": "binning assay signal (antibody pair matrix)", "setting": "GPNMB; Table 5, paired with column antibody 1.15", "value": 0}, {"measurement": "binning assay signal (antibody pair matrix)", "setting": "GPNMB; Table 5, paired with column antibody 1.2", "value": 90}, {"measurement": "binning assay signal (antibody pair matrix)", "setting": "GPNMB; Table 5, paired with column antibody 1.3", "value": 51}, {"measurement": "binning assay signal (antibody pair matrix)", "setting": "GPNMB; Table 5, paired with column antibody 1.5", "value": "−9"}, {"measurement": "binning assay signal (antibody pair matrix)", "setting": "GPNMB; Table 5, paired with column antibody 1.7", "value": 17}, {"measurement": "binning assay signal (antibody pair matrix)", "setting": "GPNMB; Table 5, paired with column antibody 1.8", "value": 12}, {"measurement": "binning assay signal (antibody pair matrix)", "setting": "GPNMB; Table 5, paired with column antibody 1.9", "value": 19}, {"measurement": "binning assay signal (antibody pair matrix)", "setting": "GPNMB; Table 5, paired with column xV5", "value": 125}, {"measurement": "epitope bin", "setting": "GPNMB; six anti-GPNMB antibodies, three bins", "value": "Bin 2"}]}]}
